According to publication PMC3597514:

How the values were obtained:
[1] = target: NbSPL6-Yc (N. benthamiana); assay: split reporter (BiFC, NanoBiT); as a5, but with tCFP alone in place of tCFP-p50-U1
[2] = target: NbSPL6-Yc (N. benthamiana); assay: split reporter (BiFC, NanoBiT); as a5, but with the non-eliciting p50-Ob-tCFP in place of tCFP-p50-U1; percent of cells as the ratio to the cells seen with tCFP-p50-U1

percent of cells with citrine fluorescence (with tCFP alone) (% of the cells) [1]: 10 | percent of cells with citrine fluorescence (with p50-Ob-tCFP) (% of the cells) [2]: 13
B1: gN-Yn (receptor)
chain: MASSSSSSRWSYDVFLSFRGEDTRKTFTSHLYEVLNDKGIKTFQDDKRLEYGATIPGELCKAIEESQFAIVVFSENYATSRWCLNELVKIMECKTRFKQTVIPIFYDVDPSHVRNQKESFAKAFEEHETKYKDDVEGIQRWRIALNEAANLKGSCDNRDKTDADCIRQIVDQISSKLCKISLSYLQNIVGIDTHLEKIESLLEIGINGVRIMGIWGMGGVGKTTIARAIFDTLLGRMDSSYQFDGACFLKDIKENKRGMHSLQNALLSELLREKANYNNEEDGKHQMASRLRSKKVLIVLDDIDNKDHYLEYLAGDLDWFGNGSRIIITTRDKHLIEKNDIIYEVTALPDHESIQLFKQHAFGKEVPNENFEKLSLEVVNYAKGLPLALKVWGSLLHNLRLTEWKSAIEHMKNNSYSGIIDKLKISYDGLEPKQQEMFLDIACFLRGEEKDYILQILESCHIGAEYGLRILIDKSLVFISEYNQVQMHDLIQDMGKYIVNFQKDPGERSRLWLAKEVEEVMSNNTGTMAMEAIWVSSYSSTLRFSNQAVKNMKRLRVFNMGRSSTHYAIDYLPNNLRCFVCTNYPWESFPSTFELKMLVHLQLRHNSLRHLWTETKHLPSLRRIDLSWSKRLTRTPDFTGMPNLEYVNLYQCSNLEEVHHSLGCCSKVIGLYLNDCKSLKRFPCVNVESLEYLGLRSCDSLEKLPEIYGRMKPEIQIHMQGSGIRELPSSIFQYKTHVTKLLLWNMKNLVALPSSICRLKSLVSLSVSGCSKLESLPEEIGDLDNLRVFDASDTLILRPPSSIIRLNKLIILMFRGFKDGVHFEFPPVAEGLHSLEYLNLSYCNLIDGGLPEEIGSLSSLKKLDLSRNNFEHLPSSIAQLGALQSLDLKDCQRLTQLPELPPELNELHVDCHMALKFIHYLVTKRKKLHRVKLDDAHNDTMYNLFAYTMFQNISSMRHDISASDSLSLTVFTGQPYPEKIPSWFHHQGWDSSVSVNLPENWYIPDKFLGFAVCYSRSLIDTTAHLIPVCDDKMSRMTQKLALSECDTESSNYSEWDIHFFFVPFAGLWDTSKANGKTPNDYGIIRLSFSGEEKMYGLRLLYKEGPEVNALLQMRENSNEPTEHSTGIRRTQYNNRTSFYELING
